{
  "source": "the Immune Epitope Database (IEDB)",
  "key": {"HLA-A*30:01": {"molecular_target": "HLA-A*30:01", "test": "IEDB peptide-MHC binding, purified MHC/competitive/fluorescence; filed as Kd, often an IC50 or EC50 that approximates it; ≥ and ≤ were set here for values at or beyond the usual limits of such assays", "details": "source organism: Vibrio cholerae V52"}, "HLA-B*08:01": {"molecular_target": "HLA-B*08:01", "test": "IEDB peptide-MHC binding, purified MHC/competitive/fluorescence; filed as Kd, often an IC50 or EC50 that approximates it; ≥ and ≤ were set here for values at or beyond the usual limits of such assays", "details": "source organism: Vibrio cholerae V52"}, "HLA-A*03:01": {"molecular_target": "HLA-A*03:01", "test": "IEDB peptide-MHC binding, purified MHC/direct/fluorescence; filed as Kd, often an IC50 or EC50 that approximates it; ≥ and ≤ were set here for values at or beyond the usual limits of such assays", "details": "source organism: Vibrio cholerae"}, "HLA-B*15:01": {"molecular_target": "HLA-B*15:01", "test": "IEDB peptide-MHC binding, purified MHC/direct/fluorescence; filed as Kd, often an IC50 or EC50 that approximates it; ≥ and ≤ were set here for values at or beyond the usual limits of such assays", "details": "source organism: Vibrio cholerae"}, "HLA-B*51:01": {"molecular_target": "HLA-B*51:01", "test": "IEDB peptide-MHC binding, purified MHC/direct/fluorescence; filed as Kd, often an IC50 or EC50 that approximates it; ≥ and ≤ were set here for values at or beyond the usual limits of such assays", "details": "source organism: Vibrio cholerae"}, "HLA-B*39:01": {"molecular_target": "HLA-B*39:01", "test": "IEDB peptide-MHC binding, purified MHC/direct/fluorescence; filed as Kd, often an IC50 or EC50 that approximates it; ≥ and ≤ were set here for values at or beyond the usual limits of such assays", "details": "source organism: Vibrio cholerae V52"}, "HLA-A*31:01": {"molecular_target": "HLA-A*31:01", "test": "IEDB peptide-MHC binding, purified MHC/direct/fluorescence; filed as Kd, often an IC50 or EC50 that approximates it; ≥ and ≤ were set here for values at or beyond the usual limits of such assays", "details": "source organism: Vibrio cholerae"}, "HLA-A*02:01": {"molecular_target": "HLA-A*02:01", "test": "IEDB peptide-MHC binding, purified MHC/direct/fluorescence; filed as Kd, often an IC50 or EC50 that approximates it; ≥ and ≤ were set here for values at or beyond the usual limits of such assays", "details": "source organism: Vibrio cholerae"}, "HLA-B*40:01": {"molecular_target": "HLA-B*40:01", "test": "IEDB peptide-MHC binding, purified MHC/direct/fluorescence; filed as Kd, often an IC50 or EC50 that approximates it; ≥ and ≤ were set here for values at or beyond the usual limits of such assays", "details": "source organism: Vibrio cholerae"}, "HLA-B*38:01": {"molecular_target": "HLA-B*38:01", "test": "IEDB peptide-MHC binding, purified MHC/direct/fluorescence; filed as Kd, often an IC50 or EC50 that approximates it; ≥ and ≤ were set here for values at or beyond the usual limits of such assays", "details": "source organism: Vibrio cholerae V52"}, "HLA-B*48:01": {"molecular_target": "HLA-B*48:01", "test": "IEDB peptide-MHC binding, purified MHC/direct/fluorescence; filed as Kd, often an IC50 or EC50 that approximates it; ≥ and ≤ were set here for values at or beyond the usual limits of such assays", "details": "source organism: Vibrio cholerae"}, "HLA-B*18:01": {"molecular_target": "HLA-B*18:01", "test": "IEDB peptide-MHC binding, purified MHC/direct/fluorescence; filed as Kd, often an IC50 or EC50 that approximates it; ≥ and ≤ were set here for values at or beyond the usual limits of such assays", "details": "source organism: Vibrio cholerae"}, "HLA-B*07:02": {"molecular_target": "HLA-B*07:02", "test": "IEDB peptide-MHC binding, purified MHC/direct/fluorescence; filed as Kd, often an IC50 or EC50 that approximates it; ≥ and ≤ were set here for values at or beyond the usual limits of such assays", "details": "source organism: Vibrio cholerae"}, "HLA-B*15:17": {"molecular_target": "HLA-B*15:17", "test": "IEDB peptide-MHC binding, purified MHC/direct/fluorescence; filed as Kd, often an IC50 or EC50 that approximates it; ≥ and ≤ were set here for values at or beyond the usual limits of such assays", "details": "source organism: Vibrio cholerae"}, "HLA-B*46:01": {"molecular_target": "HLA-B*46:01", "test": "IEDB peptide-MHC binding, purified MHC/direct/fluorescence; filed as Kd, often an IC50 or EC50 that approximates it; ≥ and ≤ were set here for values at or beyond the usual limits of such assays", "details": "source organism: Vibrio cholerae"}, "HLA-A*01:01": {"molecular_target": "HLA-A*01:01", "test": "IEDB peptide-MHC binding, purified MHC/direct/fluorescence; filed as Kd, often an IC50 or EC50 that approximates it; ≥ and ≤ were set here for values at or beyond the usual limits of such assays", "details": "source organism: Vibrio cholerae"}, "HLA-A*11:01": {"molecular_target": "HLA-A*11:01", "test": "IEDB peptide-MHC binding, purified MHC/direct/fluorescence; filed as Kd, often an IC50 or EC50 that approximates it; ≥ and ≤ were set here for values at or beyond the usual limits of such assays", "details": "source organism: Vibrio cholerae"}, "HLA-A*26:01": {"molecular_target": "HLA-A*26:01", "test": "IEDB peptide-MHC binding, purified MHC/direct/fluorescence; filed as Kd, often an IC50 or EC50 that approximates it; ≥ and ≤ were set here for values at or beyond the usual limits of such assays", "details": "source organism: Vibrio cholerae V52"}, "HLA-B*58:01": {"molecular_target": "HLA-B*58:01", "test": "IEDB peptide-MHC binding, purified MHC/direct/fluorescence; filed as Kd, often an IC50 or EC50 that approximates it; ≥ and ≤ were set here for values at or beyond the usual limits of such assays", "details": "source organism: Vibrio cholerae"}, "HLA-A*69:01": {"molecular_target": "HLA-A*69:01", "test": "IEDB peptide-MHC binding, purified MHC/direct/fluorescence; filed as Kd, often an IC50 or EC50 that approximates it; ≥ and ≤ were set here for values at or beyond the usual limits of such assays", "details": "source organism: Vibrio cholerae"}, "HLA-B*57:01": {"molecular_target": "HLA-B*57:01", "test": "IEDB peptide-MHC binding, purified MHC/direct/fluorescence; filed as Kd, often an IC50 or EC50 that approximates it; ≥ and ≤ were set here for values at or beyond the usual limits of such assays", "details": "source organism: Vibrio cholerae"}, "HLA-B*27:05": {"molecular_target": "HLA-B*27:05", "test": "IEDB peptide-MHC binding, purified MHC/direct/fluorescence; filed as Kd, often an IC50 or EC50 that approximates it; ≥ and ≤ were set here for values at or beyond the usual limits of such assays", "details": "source organism: Vibrio cholerae"}},
  "data": [
    {"sequence": "IVKQGRDAL", "values": [
      {"measurement": "Kd", "setting": "HLA-A*30:01", "value": "≥ 20", "unit": "µM"},
      {"measurement": "Kd", "setting": "HLA-B*08:01", "value": 1.46, "unit": "µM"},
      {"measurement": "Kd", "setting": "HLA-A*03:01", "value": "≥ 20", "unit": "µM"},
      {"measurement": "Kd", "setting": "HLA-B*15:01", "value": 1.34, "unit": "µM"},
      {"measurement": "Kd", "setting": "HLA-B*51:01", "value": "≥ 20", "unit": "µM"},
      {"measurement": "Kd", "setting": "HLA-B*39:01", "value": "≥ 20", "unit": "µM"},
      {"measurement": "Kd", "setting": "HLA-A*31:01", "value": "≥ 20", "unit": "µM"},
      {"measurement": "Kd", "setting": "HLA-A*02:01", "value": "≥ 20", "unit": "µM"},
      {"measurement": "Kd", "setting": "HLA-B*40:01", "value": "≥ 20", "unit": "µM"},
      {"measurement": "Kd", "setting": "HLA-B*38:01", "value": "≥ 20", "unit": "µM"},
      {"measurement": "Kd", "setting": "HLA-B*48:01", "value": "≥ 20", "unit": "µM"},
      {"measurement": "Kd", "setting": "HLA-B*18:01", "value": "≥ 20", "unit": "µM"},
      {"measurement": "Kd", "setting": "HLA-B*07:02", "value": 0.226, "unit": "µM"},
      {"measurement": "Kd", "setting": "HLA-B*15:17", "value": "≥ 20", "unit": "µM"},
      {"measurement": "Kd", "setting": "HLA-B*46:01", "value": "≥ 20", "unit": "µM"},
      {"measurement": "Kd", "setting": "HLA-A*01:01", "value": "≥ 20", "unit": "µM"},
      {"measurement": "Kd", "setting": "HLA-A*11:01", "value": "≥ 20", "unit": "µM"},
      {"measurement": "Kd", "setting": "HLA-A*26:01", "value": "≥ 20", "unit": "µM"},
      {"measurement": "Kd", "setting": "HLA-B*58:01", "value": "≥ 20", "unit": "µM"},
      {"measurement": "Kd", "setting": "HLA-A*69:01", "value": "≥ 20", "unit": "µM"},
      {"measurement": "Kd", "setting": "HLA-B*57:01", "value": "≥ 20", "unit": "µM"},
      {"measurement": "Kd", "setting": "HLA-B*27:05", "value": "≥ 20", "unit": "µM"}
    ]}
  ]
}
